Data as given in patent US20240376185A1 (SMIVET B V, published 2024).

T1: recombinant tetanus toxin fragment C (rTTC) (Clostridium tetani, UniProt P04958 865-1315)
T1 sequence: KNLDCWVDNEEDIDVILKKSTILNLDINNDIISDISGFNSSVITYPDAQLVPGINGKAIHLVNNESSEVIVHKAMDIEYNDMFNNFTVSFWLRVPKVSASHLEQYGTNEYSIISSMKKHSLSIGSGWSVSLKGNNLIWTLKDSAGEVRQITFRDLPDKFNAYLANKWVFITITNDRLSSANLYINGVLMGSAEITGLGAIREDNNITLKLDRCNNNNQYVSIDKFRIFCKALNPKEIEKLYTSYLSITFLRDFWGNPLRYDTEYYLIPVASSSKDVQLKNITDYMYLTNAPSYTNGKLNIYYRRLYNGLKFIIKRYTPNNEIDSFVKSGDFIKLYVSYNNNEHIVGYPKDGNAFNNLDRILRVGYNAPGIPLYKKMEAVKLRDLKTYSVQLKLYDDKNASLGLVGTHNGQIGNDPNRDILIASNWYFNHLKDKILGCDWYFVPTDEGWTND

B1: SVA02 (VHH, not shown: large carriers)
VHH: QVQLQQSGGGLVQAGGSLRLSCAASGRFFSRQVMGWFRQAPGKDREFVGVISWDNGVTFYSDSVKGRFTMSREIAKKTVHLQMNSLKPEDTAVYYCAAGNALHSRYYSPSKYDYWGPGTQVTVSS
B2: SVT15L-3FW4M (VHH)
VHH: QVQLQESGGGLVQTGGSLRLSCRASGRAFANYHFGWFRQAPGKDREFVASISWKGGSTYYANFALGRFTSSVDRAESSVYLQMSGLTPEDTATYYCAAHDGGDWNYHTGMDYWGQGTQVTVSS
B3: SVT16-L123Q-GS2-SVA12M2-H6 (bispecific antibody)
chain: QVQLQESGGGSVQAGDSLRLSCAASGRTISNYAMGWFRQAPGKQREFVAAISRSDNTYYTDSVKGRFTISRDNAKNTLYLQMNSLKPEETAVYYCAADPNLMYESKWKYRALEAWGQGTQVTVSSGGGGSGGGSEVQLVESGGGLVQAGGSLRLSCAASGRTFSYYPMAWFRQAPGQEREFVAAIIGADTTYYADSLKGRFTISRDNAKNMVYLQMNSLKPEDTAVYYCAARNTYWSDVYYREGQYTNWGQGTQVTVSSHHHHHH
B4: SVA06 (VHH)
VHH: QVQLQESGGRLVQAEDSLRLSCAASGRTFVSYDMGWFRQAPGKEREFVAAINWRGYTTDYVDSVKGRFFISRDIAKSTVYLQMNNLKPEDTAVYYCAARQMSGSSRYSPPGRVGYDFWGQGTQVTVSS
B5: SVT16L (VHH)
VHH: QVQLQESGGGSVQAGDSLRLSCAASGRTISNYAMGWFRQAPGKQREFVAAISRSDNTYYTDSVKGRFTISRDNAKNTLYLQMNSLKPEETAVYYCAADPNLMYESKWKYRALEAWGQGTLVTVSS
B6: SVA16 (VHH, not shown: large carriers)
VHH: QVQLQESGGGVVQAGGSLRLSCAASGRTVSSSAMGWFRLAPGKEREFVVGISRSGGSIFYADSVKGRFTISRKNAKNTVDLQMNSLKPEDTAVYYCAAGYRPGYGDYGRVFYREDEYDDWGQGTQVTVSS

Legend:
human serum albumin [1] = molecular target: T2, human serum albumin (human, UniProt P02768 25-609); test: ELISA, coated albumin, E. coli supernatant
T2 construct: mature; also called human Alb

horse serum albumin = molecular target: T3, horse serum albumin (horse, UniProt P35747 25-607); test: ELISA, coated albumin, E. coli supernatant
T3 construct: mature; also called horse Alb; Equine albumin

dog serum albumin = molecular target: T4, dog serum albumin (dog, UniProt P49822 25-608); test: ELISA, coated albumin, E. coli supernatant
T4 construct: mature; also called dog Alb; Canine albumin

human serum albumin [2] = molecular target: T2, human serum albumin; test: ELISA, E. coli supernatant
[3] = molecular target: T5, tetanus neurotoxin (TeNT), authentic tetanus holotoxin (Clostridium tetani, UniProt P04958 2-1315); test: competition ELISA on TeNT, binder biotinylated; competitor SVT02L
[4] = molecular target: T5, tetanus neurotoxin (TeNT), authentic …; test: competition ELISA on TeNT, binder biotinylated; competitor SVT16L
[5] = molecular target: T1, recombinant tetanus toxin fragment C …; test: ELISA, directly coated rTTC, unlabelled binder
[6] = molecular target: T5, tetanus neurotoxin (TeNT), authentic …; test: competition ELISA on TeNT, binder biotinylated; competitor mAb 11n185
[7] = molecular target: T5, tetanus neurotoxin (TeNT), authentic …; test: competition ELISA on TeNT, binder biotinylated; competitor mAb 6F57
[8] = molecular target: T5, tetanus neurotoxin (TeNT), authentic …; test: competition ELISA on TeNT, binder biotinylated; competitor SVT03L
[9] = molecular target: T5, tetanus neurotoxin (TeNT), authentic …; test: competition ELISA on TeNT, binder biotinylated; competitor SVT06L
[10] = molecular target: T5, tetanus neurotoxin (TeNT), authentic …; test: competition ELISA on TeNT, binder biotinylated; competitor SVT13L
[11] = molecular target: T5, tetanus neurotoxin (TeNT), authentic …; test: ELISA, directly coated TeNT
[12] = molecular target: T5, tetanus neurotoxin (TeNT), authentic …; test: ELISA, TeNT captured with cAb-TT2, biotinylated binder
[13] = molecular target: T5, tetanus neurotoxin (TeNT), authentic …; test: ELISA, directly coated TeNT, biotinylated binder
[14] = molecular target: T5, tetanus neurotoxin (TeNT), authentic …; test: competition ELISA on TeNT, binder biotinylated; competitor mAb 14F5
[15] = molecular target: T5, tetanus neurotoxin (TeNT), authentic …; test: competition ELISA on TeNT, binder biotinylated; competitor SVT22L
[16] = molecular target: T5, tetanus neurotoxin (TeNT), authentic …; test: competition ELISA on TeNT, binder biotinylated; competitor SVT08L
[17] = molecular target: T5, tetanus neurotoxin (TeNT), authentic …; test: competition ELISA on TeNT, binder biotinylated; competitor SVT15L
[18] = molecular target: T5, tetanus neurotoxin (TeNT), authentic …; test: ELISA, TeNT captured with cAb-TT2, unlabelled binder
[19] = molecular target: T1, recombinant tetanus toxin fragment C …; test: ELISA, rTTC captured with coated mAb 6E7
[20] = molecular target: T5, tetanus neurotoxin (TeNT), authentic …; test: GT1b-TeNT inhibition ELISA, EC at A450 0.59
[21] = molecular target: T5, tetanus neurotoxin (TeNT), authentic …; test: ELISA, directly coated TeNT, unlabelled binder
[22] = molecular target: T5, tetanus neurotoxin (TeNT), authentic …; test: GT1b-TeNT inhibition ELISA, unlabelled binder
[23] = molecular target: T5, tetanus neurotoxin (TeNT), authentic …; test: competition ELISA on TeNT, binder biotinylated; competitor SVT15L-3FW4M
[24] = molecular target: T5, tetanus neurotoxin (TeNT), authentic …; test: competition ELISA on TeNT, binder biotinylated; competitor SVT34L
[25] = molecular target: T5, tetanus neurotoxin (TeNT), authentic …; test: ELISA, TeNT captured with coated mAb 6E7
[26] = molecular target: T5, tetanus neurotoxin (TeNT), authentic …; test: competition ELISA on TeNT, binder biotinylated; competitor mAb 6E7
dog albumin (dog Alb) [27] = molecular target: T6, dog albumin (dog Alb) (dog, UniProt P49822 25-608); test: ELISA: coated dog Alb, anti-his6 PO
T6 construct: also called Canine albumin

dog albumin (dog Alb) [28] = molecular target: T6, dog albumin (dog Alb); test: ELISA: coated dog Alb, anti-his6 PO; remark: listed apart in the source

Row | Binder | absorbance at 450 nm (human serum albumin [1]) [A450] | absorbance at 450 nm (horse serum albumin) [A450] | absorbance at 450 nm (dog serum albumin) [A450] | binding result (human serum albumin [2]) | % inhibition of binding [3] [%] | % inhibition of binding [4] [%] | maximal absorbance at 450 nm [5] | % inhibition of binding [6] [%] | % inhibition of binding [7] [%] | % inhibition of binding [8] [%] | % inhibition of binding [9] [%] | % inhibition of binding [10] [%] | absorbance at 450 nm [11] | EC resulting in A450 0.2 [12] [ng/mL] | maximal absorbance at 450 nm [12] | EC resulting in A450 0.4 [13] [ng/mL] | maximal absorbance at 450 nm [13] | % inhibition of binding [14] [%] | % inhibition of binding [15] [%] | % inhibition of binding [16] [%] | further results
1 | B1 | 0.065 | 1.9 | 1.87 | no binding | – | – | – | – | – | – | – | – | – | – | – | – | – | – | – | – | –
2 | B2 | – | – | – | – | 10 | 3 | 0.206 | -1 | 6 | -8 | 7 | -5 | 0.477 | 3.5 | 0.697 | 2 | 1.37 | 2 | 4 | 6 | % inhibition of binding [17]: 96%; EC resulting in A450 0.15 [18]: 9.8 ng/mL; maximal absorbance at 450 nm [18]: 0.195; absorbance at 450 nm [19]: 0.528; concentration giving A450 of 0.59 [20]: 0.039 µg/mL; EC resulting in A450 0.2 [21]: 3.8 ng/mL; maximal absorbance at 450 nm [21]: 0.817; minimal absorbance at 450 nm [22]: 0.127; % inhibition of binding [23]: 95%; % inhibition of binding [24]: 3%; absorbance at 450 nm [25]: 0.236; % inhibition of binding [26]: 6%
3 | B3 | – | – | – | – | – | – | – | – | – | – | – | – | – | – | – | – | – | – | – | – | Effective SDA Concentration at A450 0.2 (dog albumin (dog Alb) [27]): 34 ng/mL; maximal absorbance value (dog albumin (dog Alb) [28]): 1.78 A450
4 | B4 | 0.067 | 1.66 | 1.99 | no binding | – | – | – | – | – | – | – | – | – | – | – | – | – | – | – | – | –
5 | B5 | – | – | – | – | 13 | 95 | 1.01 | -2 | 2 | -1 | -8 | 96 | 1.27 | 1.6 | 0.971 | 0.52 | 1.42 | 6 | 96 | 2 | % inhibition of binding [17]: 12%; EC resulting in A450 0.15 [18]: 3.2 ng/mL; maximal absorbance at 450 nm [18]: 0.363; absorbance at 450 nm [19]: 1.38; concentration giving A450 of 0.59 [20]: 0.047 µg/mL; EC resulting in A450 0.2 [21]: 1.1 ng/mL; maximal absorbance at 450 nm [21]: 1.57; minimal absorbance at 450 nm [22]: 0.129; % inhibition of binding [23]: 17%; % inhibition of binding [24]: 95%; absorbance at 450 nm [25]: 1.13; % inhibition of binding [26]: 6%
6 | B6 | 0.083 | 2.11 | 2.02 | no binding | – | – | – | – | – | – | – | – | – | – | – | – | – | – | – | – | –
